2 molecules from paper PMC5570134 can be followed below.

The target of this data set is FUS RRM (UniProt P35637 267-373). Nature of the data set: EMSA. In general terms: A gel shift assay detects complexes by their altered migration in electrophoresis.
Chain of FUS RRM (P35637 267-373): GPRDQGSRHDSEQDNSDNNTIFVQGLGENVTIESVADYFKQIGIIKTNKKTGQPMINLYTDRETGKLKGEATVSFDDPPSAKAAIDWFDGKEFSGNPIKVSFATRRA

As a reminder, the Kd is the equilibrium constant for the complex coming apart. Molecule GCUGCGGUGUGGAAGGAGUGGCUGGGUUGCGCAGG (structured_RNA) [Sc1] yielded a Kd of 48 ± 3 µM.

In turn, AAAAAAAAAAAAAAAAAAAAAAAAAAAAAAAAAAAAAAAA (ssRNA) [Poly-A] had a Kd of 45 ± 2 µM.
